The values below come from the supplement of paper PMC12042874.

± gives the uncertainty stated by the source.

The series is described as follows: amyloid nucleation score (Sup35N fusion, yeast selection) (log enrichment); library NNK3; higher = more nucleation; inactive = no reads after selection. A digest of the protocol:
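The nucleation score equals the log enrichment of output over input reads from DiMSum, centred on the mode score of non-aggregating sequences. It was computed only for sequences with 100 or more input reads. The reads came from Illumina sequencing of plasmid inserts from psi-negative yeast expressing Sup35N fused to peptides of 20 random codons, induced with 100 μM copper sulfate for 24 hours and grown 7 days at 30°C without adenine and uracil.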
Consider WLSDNSSNDLQYHYSSSKIM, for which the amyloid nucleation score entry was “inactive”.
Consider WLSYIDGSKVELIVQAW, for which the amyloid nucleation score entry is “inactive”.
In the case of WLWISMVYCHLKDIRIIVGN, the amyloid nucleation score result was “inactive”.
In the case of WMFGQSIAALFSWGTVCGLV, the amyloid nucleation score entry was “inactive”.
For WMMDEMLVFLTH, the amyloid nucleation score result was “inactive”.
For WMRVPRMWEGKANFISG the value was “inactive”; for WNFGFGVWRFTAGG, 1.33 ± 0.067; for WNLYCAFSPDYRLNIWTLQI, “inactive”.
For WNNYI the value was “inactive”.
Turning to WNSHQREEYTVDCYVVSVKL, the amyloid nucleation score was -0.023 ± 0.6.
Substance WNTGETISRRLVVYNFIEMN registered an amyloid nucleation score of 2.22 ± 0.056.
For WNVELSNLVEIMGRCACYSS the value was 0.406 ± 0.35.
For WPAAQVNQIHYCVGLNNYTW the value was “inactive”; for WPFRKKYGIVEIRDEMYAG, “inactive”; for WPSYSRLQTDFRGTGFFFRG, “inactive”.
As to WPYGIVTLRTWANYLGLFTL, the amyloid nucleation score is -0.796 ± 1.1.
As for WQCGNVLLSYAQYNAVLVAW, the entry is “inactive”; as for WRGKKSWAWPDQCLI, “inactive”.
On to WRMDSRYYCYYQFLSLSYQW, for which the amyloid nucleation score result was “inactive”.
As to WRPFWYIGFHVNVTRG, the amyloid nucleation score entry was “inactive”.
As to WRSKLLM, the amyloid nucleation score result was “inactive”.
Consider WRVPCLIVKYDV, for which the amyloid nucleation score entry was “inactive”.
For WRVSNKIIPIIRWQWMDPCL, the amyloid nucleation score entry was “inactive”.
Take WSDWRLIKFNFRRSYLCLLW: the amyloid nucleation score entry was “inactive”.
Take WSFRNVVSVGMWYLCSDRIG: the amyloid nucleation score result is “inactive”.
Regarding WSGHIGVLRTTSSQQWRVRR, the amyloid nucleation score entry was “inactive”.
Consider WSMCKLKDFFTGRGVYRFIS, for which the amyloid nucleation score entry was “inactive”.
Regarding WSSWSRS, the amyloid nucleation score result is “inactive”.
For WSTLFVIILPTKTLGYYCFW, the amyloid nucleation score result is “inactive”.
On to WSTMMNNWCLLWGCKLKPKL, for which the amyloid nucleation score result is “inactive”.
On to WSWRDLEGQNSGKEAVILEL, for which the amyloid nucleation score result is “inactive”.
Turning to WTESWYKYMNKDVSSHCKQS, the amyloid nucleation score entry was “inactive”.
For WVDWFESSQTFFCALYE, the amyloid nucleation score result is “inactive”.
As for WVHSVKENVSCGSRF, the entry is “inactive”; as for WVQHISLWSTMWNGPREAPM, “inactive”.
WVSSDRHSSLVNWKHGLSQE: the amyloid nucleation score entry was “inactive”.
As for WVVRKVHSLSHCLGCHPESW, the figure is 0.231 ± 0.57.
As for WVWMTETVLWFRYKQVACGW, the amyloid nucleation score entry was “inactive”.
Regarding WVYNGIIYGRLFMDLLWTGL, the amyloid nucleation score result is “inactive”.
Take WYGCVAWYVVKSMFYS: the amyloid nucleation score entry is “inactive”.
Take WYMGFSAVLVCFRLSRPVT: the amyloid nucleation score entry is “inactive”.
For WYNNYFRQVPSCVKDGRSHP the value was “inactive”.
For WYPLGRPRVLINYETPTSVM, the amyloid nucleation score entry is “inactive”.
For WYSRTDCNKTAENSCSTKFI the value was 0.611 ± 0.17; for WYVFMCNGSWFLRNCRNLSY, 0.144 ± 0.78; for YAALWITYCLSSTTSRDDLD, “inactive”.
For YAEPYRRDVPGSCEYLTMM the value was “inactive”.
YASVRVQFCCIFKSADRASP yielded an amyloid nucleation score of 1.9 ± 0.088.
As for YAVSLMIFGFWGSSMFSHPS, the figure is 0.779 ± 0.11; as for YCALLRNAITVV, “inactive”; as for YCCSGMWVMRSVHSHEIGYL, 0.966 ± 0.18.
Turning to YCDNYYSLMSTTEEFPRVCV, the amyloid nucleation score result was “inactive”.
As for YCFDI, the amyloid nucleation score entry was “inactive”.
As to YCKFDS, the amyloid nucleation score turned out to be 0.705 ± 0.12.
Consider YCTRGNSTNLEYELECLVIF, for which the amyloid nucleation score result is “inactive”.
For YCVFGRNCDNKAVVLIGGNP the value was “inactive”; for YCVQCR, “inactive”; for YDLRIYSKRVDPF, “inactive”.
YDLVSNG: the amyloid nucleation score result is “inactive”.
Regarding YDMFMVSWLKEIDWMQDDPR, the amyloid nucleation score result is “inactive”.
YDWMFLYPTSIS displayed an amyloid nucleation score of 0.319 ± 0.18.
Consider YEWKTRGW, for which the amyloid nucleation score result was “inactive”.
For YFATRDFAWVFENGSIEGAT the value was “inactive”; for YFENLVEVRQIATFKTV, “inactive”.
For YFGDPSSRMKCFYPYVSVCR, the amyloid nucleation score result was “inactive”.
Consider YFILIYWSQCSMWYYVFKYG, for which the amyloid nucleation score entry was “inactive”.
With YFINMRKYCTCPDMCEVLRI, the amyloid nucleation score came out at 0.574 ± 0.18.
In turn, YFKYTN returned an amyloid nucleation score of 1.32 ± 0.15.
For YFLSDLQRKGSGLETVRVCR the value was “inactive”; for YFMVRWYCAGLDILCGLQEK, “inactive”; for YFNYSLFISVCS, “inactive”.
As for YFTNDQNKQGFHWMGYMSHI, the entry is “inactive”; as for YFVCVEEVRKYMEPSELGVR, “inactive”; as for YFVTTVKVEALFQ, -0.23 ± 0.55.
As to YFYFVTHRDELGMSGPVTWA, the amyloid nucleation score entry was “inactive”.
Substance YGFAVRLCCPSLNVFLTELL had an amyloid nucleation score of 0.612 ± 0.15.
YGHFPQCVPLIFCYRRSMVT: the amyloid nucleation score result is “inactive”.
As for YGIAMTQTIVSCSEIESKLR, the entry is “inactive”; as for YGLHTGKSKALQQRIVW, “inactive”; as for YGLSGDKFRWM, “inactive”.
For YGLVGQFSTVGTKQALLLGT the value was “inactive”; for YGMYC, “inactive”.
YGYALVFTFYVGLNSVNRLR had an amyloid nucleation score of 0.801 ± 0.3.
For YGYVIPSSQLPSWTLQRY the value was “inactive”; for YHCNGPGSLWSTNLACRSME, “inactive”; for YIASNAWETWRRDRSYRKRL, “inactive”.
In the case of YIEAIYRDVPPECGTLLRTL, the amyloid nucleation score entry was “inactive”.
As for YIFVT, the amyloid nucleation score result is “inactive”.
Regarding YIGRRNMPNFSSMWMWSQGK, the amyloid nucleation score result is “inactive”.
Substance YIIFLTMAHF had an amyloid nucleation score of 0.656 ± 0.29.
Consider YIKLGYQYLYVGE, for which the amyloid nucleation score result was “inactive”.
On to YILIL, for which the amyloid nucleation score entry is “inactive”.
As to YIMSNLFGGNNLFGG, the amyloid nucleation score entry is “inactive”.
For YISFVFDRYNKSYGTARICK, the amyloid nucleation score was -0.506 ± 0.82.
With YIYSVEEYSRTSLIDDSVGW, the amyloid nucleation score entry was “inactive”.
Take YKFEHVIFWNSFLNIKVEFS: the amyloid nucleation score was 1.56 ± 0.068.
Take YKFFGDLKVAYFGKVKIE: the amyloid nucleation score entry is “inactive”.
Regarding YKNEMGTIPCRRVTSNCLSY, the amyloid nucleation score entry was “inactive”.
YKQCN: the amyloid nucleation score entry is “inactive”.
For YKRFMIPIKYCGGQRNTDVR the value was “inactive”; for YKRRKTVNWHQDCTAIFGGN, “inactive”; for YKVGRSHCGKKSEDLP, “inactive”.
Consider YKVILTCSKC, for which the amyloid nucleation score entry is “inactive”.
On to YKYDRFWKVFHQGRTLVAGG, for which the amyloid nucleation score entry was “inactive”.
For YLCYMEYVH, the amyloid nucleation score result was “inactive”.
Take YLDLFLWIREMLYYTGSLRV: the amyloid nucleation score result is “inactive”.
On to YLFWLYERRKGDYISPHVLR, for which the amyloid nucleation score entry was “inactive”.
In the case of YLGEHRVVVRNSMSPQPWLS, the amyloid nucleation score result was “inactive”.
For YLGGVRSII, the amyloid nucleation score is -0.402 ± 1.9.
With YLIYDRLSIQPDSSHHLVV, the amyloid nucleation score was -0.124 ± 0.62.
Take YLLLDEVRSKYCWGISCTGY: the amyloid nucleation score entry is “inactive”.
YLMYSVESVRWTLIE: the amyloid nucleation score entry was “inactive”.
Turning to YLNPAFELFKRMSNRFFVLA, the amyloid nucleation score was -1.02 ± 1.9.
For YLRVWPMRVYNMP, the amyloid nucleation score result is “inactive”.
As for YLTMYDSNDIFTIVATVMST, the amyloid nucleation score entry is “inactive”.
Regarding YLTVWFTKKLCVLFLFNIWK, the amyloid nucleation score result is “inactive”.
For YLVSYFNRGQSAFRFWDKFA the value was “inactive”; for YLVYRNVTMVCPDRQH, 0.375 ± 0.27.
Regarding YLYCRAWIWLDNSMLSWS, the amyloid nucleation score result was “inactive”.
As for YLYVRYTFRYWVVNYRYNNG, the entry is “inactive”.
As for YMDPWYVIDHCLWRQMFLSE, the amyloid nucleation score was -0.557 ± 1.
For YMEAC the value was “inactive”.
YMKDALNLRPLRSSTALFLS: the amyloid nucleation score entry was “inactive”.
As for YMLWDDMVEKYHCLSQRLGR, the entry is “inactive”; as for YMNSTFQMFD, 0.829 ± 0.19; as for YMVWMLNQDRSACGINIMSI, 1.33 ± 0.12.
On to YNDFCN, for which the amyloid nucleation score turned out to be 0.194 ± 0.27.
Consider YNDGVCIILFNLPFVCRRST, for which the amyloid nucleation score was found to be 2.85 ± 0.05.
Consider YNERLALLGLMVSLNVSSHS, for which the amyloid nucleation score entry is “inactive”.
Turning to YNFECLIFWSVKYLVCQHIT, the amyloid nucleation score result was “inactive”.
YNGGIRVTLT: the amyloid nucleation score result was “inactive”.
